Source: EP4800035A1 (National Cancer Center, dated 2025)

T1: human interleukin-7 receptor (IL-7R) (human, UniProt P16871 21-459)
T1 construct: whole, on cells; Endogenous receptor on NALM6 and REH cells in flow cytometry; also called IL-7Ralpha; IL-7 Ralpha
T1 sequence (looked up): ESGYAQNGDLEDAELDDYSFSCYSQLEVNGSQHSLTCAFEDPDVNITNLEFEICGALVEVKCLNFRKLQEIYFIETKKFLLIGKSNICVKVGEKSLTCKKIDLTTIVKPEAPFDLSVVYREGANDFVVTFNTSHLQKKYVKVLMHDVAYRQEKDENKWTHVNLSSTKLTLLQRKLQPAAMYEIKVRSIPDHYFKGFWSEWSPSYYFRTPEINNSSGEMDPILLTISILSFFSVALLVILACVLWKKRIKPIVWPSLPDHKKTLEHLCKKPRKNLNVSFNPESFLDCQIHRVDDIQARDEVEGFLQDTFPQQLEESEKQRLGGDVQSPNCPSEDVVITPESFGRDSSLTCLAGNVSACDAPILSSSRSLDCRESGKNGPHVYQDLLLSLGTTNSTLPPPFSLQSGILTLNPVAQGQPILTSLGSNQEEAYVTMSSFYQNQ

B1: clone 577 chimeric antibody in the IgG1 format (antibody)
heavy: not shown
light: ETTVTQSPASLSMAMGEKVTIRCMTSTDINDDMNWYQQKPGEPPKLLISEGNTLRPGVPSRFSSSGYSTDFFFTIEYMLSEDVADYFCLQTDNLPLTFGAGTKLELRRTVAAPSVFIFPPSDEQLKSGTASVVCLLNNFYPREAKVQWKVDNALQSGNSQESVTEQDSKDSTYSLSSTLTLSKADYEKHKVYACEVTHQGLSSPVTKSFNRGEC
B2: clone 577 chimeric antibody in the IgG4 format (antibody)
heavy: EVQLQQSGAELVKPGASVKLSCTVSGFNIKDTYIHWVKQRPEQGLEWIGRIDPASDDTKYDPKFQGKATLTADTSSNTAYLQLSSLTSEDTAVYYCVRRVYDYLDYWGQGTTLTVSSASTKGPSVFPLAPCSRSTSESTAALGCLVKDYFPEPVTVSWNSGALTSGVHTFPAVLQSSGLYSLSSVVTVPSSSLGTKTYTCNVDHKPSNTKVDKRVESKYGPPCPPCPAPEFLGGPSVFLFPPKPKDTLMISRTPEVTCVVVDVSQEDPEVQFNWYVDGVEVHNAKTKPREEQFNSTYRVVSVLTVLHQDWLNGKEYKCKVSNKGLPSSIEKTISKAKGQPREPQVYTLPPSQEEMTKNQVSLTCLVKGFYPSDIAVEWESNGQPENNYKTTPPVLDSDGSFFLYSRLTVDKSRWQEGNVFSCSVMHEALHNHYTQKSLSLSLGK
light: ETTVTQSPASLSMAMGEKVTIRCMTSTDINDDMNWYQQKPGEPPKLLISEGNTLRPGVPSRFSSSGYSTDFFFTIEYMLSEDVADYFCLQTDNLPLTFGAGTKLELRRTVAAPSVFIFPPSDEQLKSGTASVVCLLNNFYPREAKVQWKVDNALQSGNSQESVTEQDSKDSTYSLSSTLTLSKADYEKHKVYACEVTHQGLSSPVTKSFNRGEC
B3: clone 24 chimeric antibody in the IgG1 format (antibody)
heavy: not shown
light: QIVLTQSPAIMSSFPGEKVTMTCSASSSVNYIHWYQQKSGTSPKRLIYDTSKLASGVPPRFSGSGSGTSYSLTISSMEAEDAATYYCQQWSRNPLTFGAGTKLELRRTVAAPSVFIFPPSDEQLKSGTASVVCLLNNFYPREAKVQWKVDNALQSGNSQESVTEQDSKDSTYSLSSTLTLSKADYEKHKVYACEVTHQGLSSPVTKSFNRGEC
notes: also called anti-human IL-7R antibody clone 24 (IgG1 format)
B4: clone 24 chimeric antibody in the IgG4 format (antibody)
heavy: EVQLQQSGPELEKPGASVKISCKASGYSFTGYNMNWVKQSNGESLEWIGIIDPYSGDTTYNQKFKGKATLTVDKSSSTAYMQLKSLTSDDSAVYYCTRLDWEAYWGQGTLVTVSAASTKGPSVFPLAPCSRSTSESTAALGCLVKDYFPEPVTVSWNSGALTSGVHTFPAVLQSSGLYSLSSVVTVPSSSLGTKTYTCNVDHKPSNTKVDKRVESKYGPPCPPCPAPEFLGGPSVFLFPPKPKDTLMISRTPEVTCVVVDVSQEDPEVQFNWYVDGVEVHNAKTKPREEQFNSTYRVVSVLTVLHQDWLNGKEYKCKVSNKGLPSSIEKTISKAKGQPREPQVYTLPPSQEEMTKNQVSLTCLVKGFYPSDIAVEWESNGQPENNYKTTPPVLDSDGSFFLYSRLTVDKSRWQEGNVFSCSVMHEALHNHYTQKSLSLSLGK
light: QIVLTQSPAIMSSFPGEKVTMTCSASSSVNYIHWYQQKSGTSPKRLIYDTSKLASGVPPRFSGSGSGTSYSLTISSMEAEDAATYYCQQWSRNPLTFGAGTKLELRRTVAAPSVFIFPPSDEQLKSGTASVVCLLNNFYPREAKVQWKVDNALQSGNSQESVTEQDSKDSTYSLSSTLTLSKADYEKHKVYACEVTHQGLSSPVTKSFNRGEC
notes: also called anti-human IL-7R antibody clone 24 (IgG4 format)
B5: clone 2D5 chimeric antibody in the IgG1 format (antibody)
heavy: not shown
light: DIVMTQSHKFMSTSVGDRVSITCKASQDVGIVVAWYQQKPGQSPKLLIYWASTRHTGVPDRFTGSGSGTDFTLTISNVQSEDLADYFCQQYSSYPLTFGAGTKLELRRTVAAPSVFIFPPSDEQLKSGTASVVCLLNNFYPREAKVQWKVDNALQSGNSQESVTEQDSKDSTYSLSSTLTLSKADYEKHKVYACEVTHQGLSSPVTKSFNRGEC
notes: also called anti-human IL-7R antibody clone 2D5 (IgG1 format)
B6: clone 2D5 chimeric antibody in the IgG4 format (antibody)
heavy: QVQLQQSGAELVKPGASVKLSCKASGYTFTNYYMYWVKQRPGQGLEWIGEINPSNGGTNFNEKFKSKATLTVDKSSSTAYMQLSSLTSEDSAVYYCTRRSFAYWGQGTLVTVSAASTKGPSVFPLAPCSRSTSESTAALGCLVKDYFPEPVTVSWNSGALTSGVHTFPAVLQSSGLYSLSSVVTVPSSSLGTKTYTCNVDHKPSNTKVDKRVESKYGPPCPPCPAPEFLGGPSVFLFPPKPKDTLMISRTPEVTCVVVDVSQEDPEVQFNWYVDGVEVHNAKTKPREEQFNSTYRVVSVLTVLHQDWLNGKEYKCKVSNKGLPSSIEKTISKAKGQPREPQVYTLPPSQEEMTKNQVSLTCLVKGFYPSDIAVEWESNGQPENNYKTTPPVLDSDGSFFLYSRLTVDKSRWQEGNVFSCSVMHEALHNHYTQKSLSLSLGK
light: DIVMTQSHKFMSTSVGDRVSITCKASQDVGIVVAWYQQKPGQSPKLLIYWASTRHTGVPDRFTGSGSGTDFTLTISNVQSEDLADYFCQQYSSYPLTFGAGTKLELRRTVAAPSVFIFPPSDEQLKSGTASVVCLLNNFYPREAKVQWKVDNALQSGNSQESVTEQDSKDSTYSLSSTLTLSKADYEKHKVYACEVTHQGLSSPVTKSFNRGEC
notes: also called anti-human IL-7R antibody clone 2D5 (IgG4 format)

target: T1, human interleukin-7 receptor (IL-7R); assay: flow cytometry on NALM6 and REH cells (FIG. 5, human chimeric clone)

Binding result, binds:
B1

target: T1, human interleukin-7 receptor (IL-7R); assay: flow cytometry on NALM6 and REH cells (FIG. 2)

Binding result, binds:
B2
B3
B4
B5
B6
